For assay [1], the target named is T1, human β2-glycoprotein I (β2-GPI) (human, UniProt P02749 20-345).
T1 construct: whole, on cells
T1 sequence (looked up): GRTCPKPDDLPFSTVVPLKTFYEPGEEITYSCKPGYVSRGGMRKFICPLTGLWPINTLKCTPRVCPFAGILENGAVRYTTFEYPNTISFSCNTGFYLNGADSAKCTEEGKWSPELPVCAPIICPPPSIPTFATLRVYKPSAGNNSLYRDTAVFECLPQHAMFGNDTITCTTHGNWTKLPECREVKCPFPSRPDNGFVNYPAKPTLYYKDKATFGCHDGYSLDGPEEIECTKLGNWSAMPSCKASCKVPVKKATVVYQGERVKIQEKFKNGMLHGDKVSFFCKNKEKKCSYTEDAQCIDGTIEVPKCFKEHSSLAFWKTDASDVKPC
In words: flow cytometry of surface β2-GPI on 293T; HLA-DRB1*01:03. A general note: Flow cytometry measures light scatter and fluorescence of single cells or particles in a stream.

The target of assay [2] is T2, human thyroglobulin (TG) (human, UniProt P01266 20-2768).
T2 construct: whole, on cells; the tag is not described
In words: flow cytometry of surface TG (anti-histidine antibody) on 293T; HLA-DRB1*01:03.

For assay [3], the target named is T1, human β2-glycoprotein I (β2-GPI). Put plainly: flow cytometry of surface β2-GPI on 293T; HLA-DRB1*03:01.
For assay [4] the target is unchanged. Put plainly: flow cytometry of surface β2-GPI on 293T; HLA-DRB1*04:03.
The target is the same in assay [5]. In words: flow cytometry of surface β2-GPI on 293T; HLA-DRB1*04:06.
Assay [6] shares this target. Put plainly: flow cytometry of surface β2-GPI on 293T; HLA-DRB1*14:02.
Assay [7] has the same target. Put plainly: flow cytometry of surface β2-GPI on 293T; HLA-DRB1*04:05.
Assay [8] shares this target. In words: flow cytometry of surface β2-GPI on 293T; HLA-DRB1*08:01.
Assay [9] shares this target. Put plainly: flow cytometry of surface β2-GPI on 293T; HLA-DRB1*09:01.
Assay [10] has the same target. Put plainly: flow cytometry of surface β2-GPI on 293T; HLA-DRB1*07:01.
Assay [11] shares this target. Put plainly: flow cytometry of surface β2-GPI on 293T; HLA-DRB1*13:01.
Assay [12] has the same target. In words: flow cytometry of surface β2-GPI on 293T; HLA-DRB1*13:03.
The target in assay [13] is T2, human thyroglobulin (TG). In words: flow cytometry of surface TG (anti-histidine antibody) on 293T; HLA-DRB1*14:03.
In assay [14] the target is T1, human β2-glycoprotein I (β2-GPI). In words: flow cytometry of surface β2-GPI on 293T; HLA-DRB1*14:03.
Assay [15] has the same target. In words: flow cytometry of surface β2-GPI on 293T; HLA-DRB1*12:01.
For assay [16] the target is unchanged. Put plainly: flow cytometry of surface β2-GPI on 293T; HLA-DRB1*13:02.
Assay [17] has the same target. Put plainly: flow cytometry of surface β2-GPI on 293T; HLA-DRB1*08:03.
Assay [18] shares this target. In words: flow cytometry of surface β2-GPI on 293T; HLA-DRB1*01:01.
For assay [19] the target is unchanged. Put plainly: flow cytometry of surface β2-GPI on 293T; HLA-DRB1*14:01.
Assay [20] has the same target. In words: flow cytometry of surface β2-GPI on 293T cells (β2-GPI+HLA-DR4). The procedure:
The HLA-DRA*01:01 vector as an α-chain expression vector, the HLA-DRB1*04:04 vector as a β-chain expression vector, the β2-GPI vector, and the GFP vector were introduced to 293T cells, and the 293T cells were cultured. The cultured cells were reacted with an anti-β2-GPI antibody or an anti-cardiolipin antibody (aCL), and further reacted with the APC-labeled anti-human IgG antibody. Then, GFP-positive cells were subjected to flow cytometry analysis in the same manner as in Example 1A. As Control 1, the analysis was performed in the same manner, except that only the β2-GPI expression vector was introduced. As Control 2, the analysis was performed in the same manner, except that only the GFP vector was introduced. [0219] anti-β2-GPI antibody: polyclonal antibody, available from Atlas antibodies [0220] human anti-cardiolipin antibody: Clone EY2C9, supplied by Professor Atsumi, School of Medicine in Hokkaido University. Reference was made to the following paper: Ichikawa, K., M. A. Khamashta, T. Koike, E. Matsuura, and G. R. V. Hughes. 1994. P2-Glycoprotein I reactivity of monoclonal anticardiolipin antibodies from patients with the antiphospholipid syndrome. Arthritis Rheum. 37: 1453.

The target is the same in assay [21]. Put plainly: flow cytometry of surface β2-GPI on 293T; HLA-DRB1*11:01.
For assay [22] the target is unchanged. Put plainly: flow cytometry of surface β2-GPI on 293T; HLA-DRB1*04:02.
Assay [23] shares this target. Put plainly: flow cytometry of surface β2-GPI on 293T; HLA-DRB1*04:01.
Assay [24] has the same target. Put plainly: flow cytometry of surface β2-GPI on 293T; HLA-DRB1*10:01.

T2 sequence (P01266 20-2768): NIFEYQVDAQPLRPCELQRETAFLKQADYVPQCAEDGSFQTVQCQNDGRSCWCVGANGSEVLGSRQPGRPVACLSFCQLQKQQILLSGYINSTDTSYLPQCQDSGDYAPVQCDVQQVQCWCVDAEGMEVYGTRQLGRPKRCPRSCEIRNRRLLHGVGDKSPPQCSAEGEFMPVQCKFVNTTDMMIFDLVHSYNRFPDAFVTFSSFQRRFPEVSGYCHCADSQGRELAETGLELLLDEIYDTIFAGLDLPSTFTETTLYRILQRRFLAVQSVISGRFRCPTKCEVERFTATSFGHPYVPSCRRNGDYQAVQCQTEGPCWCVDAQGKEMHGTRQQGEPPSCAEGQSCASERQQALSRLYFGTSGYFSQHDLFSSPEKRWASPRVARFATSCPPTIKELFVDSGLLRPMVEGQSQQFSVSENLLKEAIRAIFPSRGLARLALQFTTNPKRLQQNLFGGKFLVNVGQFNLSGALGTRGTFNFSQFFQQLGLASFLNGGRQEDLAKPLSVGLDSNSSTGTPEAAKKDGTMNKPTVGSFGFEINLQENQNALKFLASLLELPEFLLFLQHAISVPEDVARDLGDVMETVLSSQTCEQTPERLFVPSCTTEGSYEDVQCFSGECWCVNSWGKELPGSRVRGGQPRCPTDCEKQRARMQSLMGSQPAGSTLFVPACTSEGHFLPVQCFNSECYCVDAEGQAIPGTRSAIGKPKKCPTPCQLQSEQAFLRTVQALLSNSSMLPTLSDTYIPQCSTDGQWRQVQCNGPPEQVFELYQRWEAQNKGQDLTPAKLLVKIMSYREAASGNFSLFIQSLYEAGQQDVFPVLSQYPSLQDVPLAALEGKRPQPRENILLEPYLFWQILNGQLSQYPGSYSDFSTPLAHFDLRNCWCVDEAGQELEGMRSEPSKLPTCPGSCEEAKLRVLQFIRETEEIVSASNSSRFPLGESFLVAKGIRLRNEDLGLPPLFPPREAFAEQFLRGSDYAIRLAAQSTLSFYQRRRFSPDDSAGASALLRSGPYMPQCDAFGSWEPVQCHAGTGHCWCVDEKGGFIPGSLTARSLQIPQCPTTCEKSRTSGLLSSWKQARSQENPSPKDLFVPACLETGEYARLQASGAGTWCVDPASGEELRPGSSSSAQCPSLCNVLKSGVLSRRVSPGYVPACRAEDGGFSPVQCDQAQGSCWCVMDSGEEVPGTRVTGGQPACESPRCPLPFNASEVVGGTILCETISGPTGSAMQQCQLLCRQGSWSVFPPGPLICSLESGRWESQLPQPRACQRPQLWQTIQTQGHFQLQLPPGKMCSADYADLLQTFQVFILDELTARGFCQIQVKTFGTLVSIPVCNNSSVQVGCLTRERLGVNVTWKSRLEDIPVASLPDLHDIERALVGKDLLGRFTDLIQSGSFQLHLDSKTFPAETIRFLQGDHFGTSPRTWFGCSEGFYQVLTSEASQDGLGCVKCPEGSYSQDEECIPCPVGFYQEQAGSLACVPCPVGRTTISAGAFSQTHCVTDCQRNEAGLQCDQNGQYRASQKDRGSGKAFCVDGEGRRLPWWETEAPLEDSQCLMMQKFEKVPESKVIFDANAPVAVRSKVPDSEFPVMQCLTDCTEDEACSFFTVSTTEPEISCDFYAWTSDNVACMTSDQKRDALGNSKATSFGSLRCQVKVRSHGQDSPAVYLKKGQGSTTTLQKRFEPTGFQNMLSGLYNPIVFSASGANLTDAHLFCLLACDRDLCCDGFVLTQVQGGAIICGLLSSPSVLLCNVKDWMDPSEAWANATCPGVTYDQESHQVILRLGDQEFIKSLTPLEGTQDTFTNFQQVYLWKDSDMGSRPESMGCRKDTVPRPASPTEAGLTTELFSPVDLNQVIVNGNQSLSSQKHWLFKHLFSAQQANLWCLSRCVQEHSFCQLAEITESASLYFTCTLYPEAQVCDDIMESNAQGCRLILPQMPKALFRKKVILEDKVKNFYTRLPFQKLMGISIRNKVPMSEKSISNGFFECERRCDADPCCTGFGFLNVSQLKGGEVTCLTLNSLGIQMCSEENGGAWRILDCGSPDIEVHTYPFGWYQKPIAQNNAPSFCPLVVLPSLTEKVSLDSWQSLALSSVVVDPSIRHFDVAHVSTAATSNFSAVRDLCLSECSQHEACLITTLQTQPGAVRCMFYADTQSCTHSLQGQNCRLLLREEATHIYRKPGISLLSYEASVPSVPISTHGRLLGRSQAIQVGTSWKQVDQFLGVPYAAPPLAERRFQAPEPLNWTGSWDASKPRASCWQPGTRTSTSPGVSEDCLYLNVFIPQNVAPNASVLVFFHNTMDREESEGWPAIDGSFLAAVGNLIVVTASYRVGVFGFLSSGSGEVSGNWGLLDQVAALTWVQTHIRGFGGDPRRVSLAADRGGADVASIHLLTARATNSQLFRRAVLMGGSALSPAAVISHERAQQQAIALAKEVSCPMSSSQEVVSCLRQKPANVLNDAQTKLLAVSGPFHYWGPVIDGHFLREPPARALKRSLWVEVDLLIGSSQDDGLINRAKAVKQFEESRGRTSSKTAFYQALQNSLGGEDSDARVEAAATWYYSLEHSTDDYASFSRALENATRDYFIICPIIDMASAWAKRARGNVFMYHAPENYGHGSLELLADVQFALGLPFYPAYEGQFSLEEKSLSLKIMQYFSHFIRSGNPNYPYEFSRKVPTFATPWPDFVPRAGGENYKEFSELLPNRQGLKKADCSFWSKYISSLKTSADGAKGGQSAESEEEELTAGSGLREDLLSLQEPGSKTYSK

B1: HLA-DR (HLA-DRA*01:01/HLA-DRB1*01:03) (other, human)
MHC II alpha: not shown
MHC II beta: not shown
notes: whole, on cells
As to B1, the binding result (in assay [1]; with human thyroglobulin (TG) [2]) was “binds” throughout.

B2: HLA-DR (HLA-DRA*01:01/HLA-DRB1*03:01) (other, human)
MHC II alpha: not shown
MHC II beta: not shown
notes: whole, on cells; also called HLA-DR3
Regarding B2, the binding result in [3] is “binds”.

B3: HLA-DR (HLA-DRA*01:01/HLA-DRB1*04:03) (other, human)
MHC II alpha: not shown
MHC II beta: not shown
notes: whole, on cells
In the case of B3, in assay [4], the binding result is “binds”.

B4: HLA-DR (HLA-DRA*01:01/HLA-DRB1*04:06) (other, human)
MHC II alpha: not shown
MHC II beta: not shown
notes: whole, on cells
As for B4, in assay [5], the binding result is recorded as “binds”.

B5: HLA-DR (HLA-DRA*01:01/HLA-DRB1*14:02) (other, human)
MHC II alpha: not shown
MHC II beta: not shown
notes: whole, on cells
Turning to B5, the binding result in assay [6] was “binds”.

B6: HLA-DR (HLA-DRA*01:01/HLA-DRB1*04:05) (other, human)
MHC II alpha: not shown
MHC II beta: not shown
notes: whole, on cells
Take B6: the binding result in assay [7] is “binds”.

B7: HLA-DR (HLA-DRA*01:01/HLA-DRB1*08:01) (other, human)
MHC II alpha: not shown
MHC II beta: not shown
notes: whole, on cells
For the molecule B7, the binding result in assay [8] is recorded as “binds”.

B8: HLA-DR (HLA-DRA*01:01/HLA-DRB1*09:01) (other, human)
MHC II alpha: not shown
MHC II beta: not shown
notes: whole, on cells
As to B8, the binding result in [9] is “binds”.

B9: HLA-DR (HLA-DRA*01:01/HLA-DRB1*07:01) (other, human)
MHC II alpha: not shown
MHC II beta: not shown
notes: whole, on cells; also called HLA-DR7; APS susceptible HLA-DR7
Turning to B9, the binding result in assay [10] was “binds”.

B10: HLA-DR (HLA-DRA*01:01/HLA-DRB1*13:01) (other, human)
MHC II alpha: not shown
MHC II beta: not shown
notes: whole, on cells
With B10, the binding result in [11] is “binds”.

B11: HLA-DR (HLA-DRA*01:01/HLA-DRB1*13:03) (other, human)
MHC II alpha: not shown
MHC II beta: not shown
notes: whole, on cells
Consider B11, for which, in [12], the binding result was “binds”.

B12: HLA-DR (HLA-DRA*01:01/HLA-DRB1*14:03) (other, human)
MHC II alpha: not shown
MHC II beta: not shown
notes: whole, on cells
On to B12, for which the binding result (with human thyroglobulin (TG) [13]; in assay [14]) was “binds” in each case.

B13: HLA-DR (HLA-DRA*01:01/HLA-DRB1*12:01) (other, human)
MHC II alpha: not shown
MHC II beta: not shown
notes: whole, on cells
With B13, in assay [15], the binding result was “binds”.

B14: HLA-DR (HLA-DRA*01:01/HLA-DRB1*13:02) (other, human)
MHC II alpha: not shown
MHC II beta: not shown
notes: whole, on cells
On to B14, for which the binding result in [16] is “binds”.

B15: HLA-DR (HLA-DRA*01:01/HLA-DRB1*08:03) (other, human)
MHC II alpha: not shown
MHC II beta: not shown
notes: whole, on cells
For B15, in assay [17], the binding result is “binds”.

B16: HLA-DR (HLA-DRA*01:01/HLA-DRB1*01:01) (other, human)
MHC II alpha: not shown
MHC II beta: not shown
notes: whole, on cells; also called HLA-DR1; HLA-DR0101
On to B16, for which, in assay [18], the binding result is “binds”.

B17: HLA-DR (HLA-DRA*01:01/HLA-DRB1*14:01) (other, human)
MHC II alpha: not shown
MHC II beta: not shown
notes: whole, on cells
In the case of B17, the binding result in [19] is recorded as “binds”.

B18: HLA-DR (HLA-DRA*01:01/HLA-DRB1*04:04) (other, human)
MHC II alpha: not shown
MHC II beta: not shown
notes: whole, on cells; also called HLA-DR4; HLA-DR0404
On to B18, for which the binding result in assay [20] is “binds”.

B19: HLA-DR (HLA-DRA*01:01/HLA-DRB1*11:01) (other, human)
MHC II alpha: not shown
MHC II beta: not shown
notes: whole, on cells
Turning to B19, the binding result in assay [21] is reported as “binds”.

B20: HLA-DR (HLA-DRA*01:01/HLA-DRB1*04:02) (other, human)
MHC II alpha: not shown
MHC II beta: not shown
notes: whole, on cells
In the case of B20, the binding result in assay [22] was “binds”.

B21: HLA-DR (HLA-DRA*01:01/HLA-DRB1*04:01) (other, human)
MHC II alpha: not shown
MHC II beta: not shown
notes: whole, on cells
As to B21, the binding result in assay [23] was “binds”.

B22: HLA-DR (HLA-DRA*01:01/HLA-DRB1*10:01) (other, human)
MHC II alpha: not shown
MHC II beta: not shown
notes: whole, on cells
As for B22, in [24], the binding result is on record as “binds”.

These data come from US20170176432A1 (OSAKA UNIVERSITY, published 2017).
